# Results taken from US20240108738A1 (Bicycle, published 2024).
# Numbered stars: 1 amine (or outer) side, 2 acyl side, 3 side chain; on linkers, the order of the positions; unused ones are H or OH. Bridge positions count the residues as written; N and C are the ends. Square brackets hold non-standard residues; d marks the D form. Ends that are not written are not given here. * marks the point of attachment. TATA = O=C(CC[*:1])N1CN(C(=O)CC[*:2])CN(C(=O)CC[*:3])C1; Pent4ynoyl = C#CCCC(=O)*; PYA = not defined here
# B1: BCY15455 (peptide)
# peptide: ACYLPDWLCGDEYCA[dK](Pent4ynoyl)-NH2
# modifications: linker 2-9-14 via TATA; not fully specified; also: AF488 label on linker
# notes: homodimer of BCY15013; scaffold TATA
# B2: BCY15663 (peptide)
# peptide: ACYLPDYLCGDEYCAK
# modifications: not fully specified; C-terminal D-Lys(PYA) joined to N-(amine-PEG2)-N-bis(PEG3-azide) linker carrying AF488
# notes: homodimer of BCY15452; scaffold TATA
# B3: BCY15922 (peptide)
# peptide: ACNLQAPCMQTGKVCAK-NH2
# modifications: linker 2-8-15 via TATA (inferred); not fully specified (residue 17); also: AF488 on linker
# notes: homodimer of BCY15687; scaffold TATA
# B4: BCY15687 (peptide)
# peptide: ACNLQAPCMQTGKVCAK
# modifications: C-terminal Lys(PYA)
# notes: scaffold TATA
# B5: BCY15921 (peptide)
# peptide: ACDLTTHNCQWGICAK-NH2
# modifications: linker 2-9-14 via TATA; not fully specified (residue 16); also: homodimer via shared N-(amine-PEG2)-N-bis(PEG3-azide) linker
# notes: scaffold TATA
# B6: BCY15452 (peptide)
# peptide: ACYLPDYLCGDEYCAK
# modifications: C-terminal D-Lys(PYA)
# notes: scaffold TATA
# B7: BCY15013 (peptide)
# peptide: ACYLPDWLCGDEYCA[dK](Pent4ynoyl)-NH2
# modifications: linker 2-9-14 via TATA; N-terminus assumed
# SMILES: C#CCCC(=O)NCCCC[C@@H](NC(=O)[C@H](C)NC(=O)[C@@H]1CSCCC(=O)N2CN3CN(C2)C(=O)CCSC[C@H](NC(=O)[C@H](CC(C)C)NC(=O)[C@H](Cc2c[nH]c4ccccc24)NC(=O)[C@H](CC(=O)O)NC(=O)[C@@H]2CCCN2C(=O)[C@H](CC(C)C)NC(=O)[C@H](Cc2ccc(O)cc2)NC(=O)[C@@H](NC(=O)[C@H](C)N)CSCCC3=O)C(=O)NCC(=O)N[C@@H](CC(=O)O)C(=O)N[C@@H](CCC(=O)O)C(=O)N[C@@H](Cc2ccc(O)cc2)C(=O)N1)C(N)=O
# notes: scaffold TATA
# B8: BCY15686 (peptide)
# peptide: ACDLTTHNCQWGICAK(PYA)
# modifications: linker 2-9-14 via TATA (inferred); reading uncertain
# notes: scaffold TATA
# How the values were obtained:
# [1] = target: T1, human NKp46 on cells (CHO-K1/NKp46 cells; CD56+ NK cells of human PBMCs) (human, UniProt O76036 22-304); assay: Kd,app, flow cytometry CHO-K1/NKp46
# T1 construct: whole, on cells; also called NCR1; CD355
# Experimental: Plates were then incubated for 1 hour at room temperature in the dark. Post-incubation, the plates were centrifuged at 500 rpm for 5 minutes and supernatant discarded. Samples were then washed twice in 200 μL of 1× phosphate buffer saline (PBS; Gibco™ 10-010-023) at 500 rpm for 5 minutes. Cells were resuspended in 100 μL of PBS and transferred to a new 96-well V-bottom polypropylene plate (Greiner Bio-One 651201). Plates were centrifuged at 500 rpm for 5 minutes and supernatant discarded.
# Preparation of samples for flow cytometry: Zombie Violet™ Fixable Viability Dye (BioLegend® 423113) was prepared as a 1:1000 dilution in PBS and 100 μL of viability dye was added to each well and incubated in the dark at 4° C. for 30 minutes. To ensure NKp46 expression, untreated CHO-K1/NKp46 cells were stained with either anti-human NKp46 or an isotype control. Antibody cocktails were prepared by diluting 1.5 μL of either, PE anti-human NKp46 (BioLegend® 331908; clone 9E2) or PE isotype control IgG1, K (BioLegend® 400112), per 100 μL of stain buffer (1×PBS supplemented with 2% FBS). Cells were resuspended in master mix cocktail (100 μL) and incubated at 4° C. for 30 minutes in the dark. Subsequently, cells were washed 3 times in 100 μL of stain buffer for 5 minutes at 500 rpm and supernatant was discarded. Cells resuspended in 200 μL of stain buffer were kept at 4° C. and in the dark until read by BD FACSCelesta™ flow cytometer.
# The binding affinity of the bicyclic peptides were calculated using a four-parameter logistic regression using Prism GraphPad software.
# [2] = target: T1, human NKp46 on cells (CHO-K1/NKp46 …); assay: Kd,app, flow cytometry, total CD56 population of human PBMCs
# Experimental: Cells were resuspended in master mix cocktail (100 μL) and incubated at 4° C. for 30 minutes in the dark. Subsequently, cells were washed 3 times in 100 μL of stain buffer for 5 minutes at 500 rpm and supernatant was discarded.
# [3] = target: T2, Human NKp46 Fc tag (Acro Biosystems, NC1-H5257) (human, UniProt O76036 22-255); assay: SPR Method 1 and/or 2
# T2 construct: bought; also called Fc-tagged human NKp46
# Summary of the method: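 Fc-tagged human NKp46 captured on anti-human IgG surface (500–1000 RU); compounds run in PBS-P+ with 2% DMSO at 25 °C, 50 μL/min, 60 s association, 400 s dissociation. Double-referenced, DMSO-corrected; KD from steady-state 1:1 fit, kinetic constants from kinetic 1:1 fit where appropriate.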
# [4] = target: T3, recombinant human NKp46-Fc fusion biotinylated via Avi-tag (human, UniProt O76036 22-255, limits assumed, biotin on Avi-tag); assay: SPR Method 1
# T3 construct: also called biotinylated NKp46
# Experimental: SPR experiments were performed to determine kₐ (M⁻¹s⁻¹), kd (s⁻¹), KD (nM) values (where measurable) of various bicyclic peptides to immobilised NKp46.
# For analysis of peptide binding to NKp46, a Biacore 3000 instrument was used with a Cytiva Streptavidin chip. Capture of the protein (recombinant human NKp46-Fc fusion biotinylated via Avi-tag) was carried out at 25° C. with HBS-N (10 mM HEPES, 0.15 M NaCl, pH 7.4) as the running buffer and biotinylated NKp46 was captured to a level of 400-800 RU using a dilution of protein to 0.2 μM in buffer. Buffer was then changed to PBS/0.05% Tween 20 and a dilution series of the peptides was prepared in this buffer with a final DMSO concentration of 0.5% with a top peptide concentration of 100 nM-5000 nM and 6 further 2 or 3-fold dilutions. The SPR analysis was run at 25° C. and a flow rate of 50 μl/min with 60 seconds association and 200-400 seconds dissociation time. Data were corrected for DMSO excluded volume effects. All data were double-referenced for blank injections and reference surface using standard processing procedures and data processing and kinetic fitting were performed using Scrubber software, version 2.0c (BioLogic Software). Data were fitted using simple 1:1 binding model allowing for mass transport effects where appropriate.
# T1 sequence (O76036 22-304): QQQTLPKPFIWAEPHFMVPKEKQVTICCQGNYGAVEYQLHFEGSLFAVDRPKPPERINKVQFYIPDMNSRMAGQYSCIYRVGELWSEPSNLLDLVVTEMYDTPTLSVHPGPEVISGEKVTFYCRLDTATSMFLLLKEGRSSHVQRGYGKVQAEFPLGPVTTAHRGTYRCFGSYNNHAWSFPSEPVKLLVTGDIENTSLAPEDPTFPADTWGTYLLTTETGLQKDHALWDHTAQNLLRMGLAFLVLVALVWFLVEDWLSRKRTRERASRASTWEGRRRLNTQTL
# T2 sequence (O76036 22-255 limits assumed): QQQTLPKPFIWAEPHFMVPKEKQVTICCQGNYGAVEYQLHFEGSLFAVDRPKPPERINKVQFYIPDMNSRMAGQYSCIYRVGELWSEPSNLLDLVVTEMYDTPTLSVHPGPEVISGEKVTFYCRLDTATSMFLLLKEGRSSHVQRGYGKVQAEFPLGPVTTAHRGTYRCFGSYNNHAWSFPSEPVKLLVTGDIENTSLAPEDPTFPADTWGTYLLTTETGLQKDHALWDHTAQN
# T3 sequence (O76036 22-255 limits assumed): as above
Binder,Kd [1],Kd [2],Kd [3],Kd [4]
B1,2.25 nM,–,–,–
B2,0.3 nM,0.028 nM,–,–
B3,1.48 nM,–,–,–
B4,–,–,783 nM,960 nM
B5,1.48 nM,–,–,–
B6,–,–,13 nM,27 nM
B7,–,–,59 nM,138 nM
B8,–,–,–,276 nM
